According to patent US8895526B2, “Identification of RNAI targets and use of RNAI for rational therapy of chemotherapy-resistant leukemia and other cancers” (Cold Spring Harbor Laboratory, priority 2009, dated 2014):

B1: Nln.1429: shRNA, SEQ ID NO: 151 (nucleic acid)
chain: TGCTGTTGACAGTGAGCGAAAGGATAAAGCTACTGGAGAATAGTGAAGCCACAGATGTATTCTCCAGTAGCTTTATCCTTCTGCCTACTGCCTCGGA
B2: Ccr1.733: shRNA, SEQ ID NO: 101 (nucleic acid)
chain: TGCTGTTGACAGTGAGCGCCTGGATTGACTACAAGTTGAATAGTGAAGCCACAGATGTATTCAACTTGTAGTCAATCCAGATGCCTACTGCCTCGGA
B3: Bcl2.906: shRNA, SEQ ID NO: 98 (nucleic acid)
chain: TGCTGTTGACAGTGAGCGCGCACAGGAATTTTGTTTAATATAGTGAAGCCACAGATGTATATTAAACAAAATTCCTGTGCATGCCTACTGCCTCGGA
B4: Ntrk3.167: shRNA, SEQ ID NO: 156 (nucleic acid)
chain: TGCTGTTGACAGTGAGCGCCTGCAGCAAGACTGAGATCAATAGTGAAGCCACAGATGTATTGATCTCAGTCTTGCTGCAGATGCCTACTGCCTCGGA
B5: Myc.2105: shRNA, SEQ ID NO: 148 (nucleic acid)
chain: TGCTGTTGACAGTGAGCGCCTGCCTCAAACTTAAATAGTATAGTGAAGCCACAGATGTATACTATTTAAGTTTGAGGCAGTTGCCTACTGCCTCGGA
B6: Acpp.818: shRNA, SEQ ID NO: 87 (nucleic acid)
chain: TGCTGTTGACAGTGAGCGAAAAGAGAAATCTCGACTCCAATAGTGAAGCCACAGATGTATTGGAGTCGAGATTTCTCTTTCTGCCTACTGCCTCGGA
B7: Smpd2.592: shRNA, SEQ ID NO: 183 (nucleic acid)
chain: TGCTGTTGACAGTGAGCGACAGCATGTCTACAGTCTGAATTAGTGAAGCCACAGATGTAATTCAGACTGTAGACATGCTGGTGCCTACTGCCTCGGA
B8: AU018778.350: shRNA, SEQ ID NO: 94 (nucleic acid)
chain: TGCTGTTGACAGTGAGCGCCTGAAGATTGCCTGTACCTAATAGTGAAGCCACAGATGTATTAGGTACAGGCAATCTTCAGATGCCTACTGCCTCGGA
B9: Mcl1.1334: shRNA, SEQ ID NO: 139 (also SEQ ID NO: 43) (nucleic acid)
chain: TGCTGTTGACAGTGAGCGAAAGAGTCACTGTCTGAATGAATAGTGAAGCCACAGATGTATTCATTCAGACAGTGACTCTTCTGCCTACTGCCTCGGA
B10: Mcl1.2018: shRNA, SEQ ID NO: 140 (also SEQ ID NO: 45) (nucleic acid)
chain: TGCTGTTGACAGTGAGCGCGGACTGGTTATAGATTTATAATAGTGAAGCCACAGATGTATTATAAATCTATAACCAGTCCATGCCTACTGCCTCGGA
B11: Pcna.1186: shRNA, SEQ ID NO: 159 (nucleic acid)
chain: TGCTGTTGACAGTGAGCGAATCAATGATCTTGACGCTAAATAGTGAAGCCACAGATGTATTTAGCGTCAAGATCATTGATGTGCCTACTGCCTCGGA
B12: Nrg4.1358: shRNA, SEQ ID NO: 153 (nucleic acid)
chain: TGCTGTTGACAGTGAGCGCCAGACATGTTGAAGTGAATAATAGTGAAGCCACAGATGTATTATTCACTTCAACATGTCTGTTGCCTACTGCCTCGGA
B13: Ogg1.395: shRNA, SEQ ID NO: 157 (nucleic acid)
chain: TGCTGTTGACAGTGAGCGACAGATCAAGTATGGACACTGATAGTGAAGCCACAGATGTATCAGTGTCCATACTTGATCTGCTGCCTACTGCCTCGGA
B14: Rpa3.561: shRNA, SEQ ID NO: 176 (also SEQ ID NO: 61) (nucleic acid)
chain: TGCTGTTGACAGTGAGCGCAAAAGTGATACTTCAATATATTAGTGAAGCCACAGATGTAATATATTGAAGTATCACTTTTATGCCTACTGCCTCGGA
B15: Gart.2713: shRNA, SEQ ID NO: 127 (nucleic acid)
chain: TGCTGTTGACAGTGAGCGAACCAGGGTAATTAATCACAAATAGTGAAGCCACAGATGTATTTGTGATTAATTACCCTGGTGTGCCTACTGCCTCGGA
B16: Myb.670: shRNA, SEQ ID NO: 145 (also SEQ ID NO: 54) (nucleic acid)
chain: TGCTGTTGACAGTGAGCGACACAACCATTTGAATCCAGAATAGTGAAGCCACAGATGTATTCTGGATTCAAATGGTTGTGCTGCCTACTGCCTCGGA
B17: Bcl2.1422: shRNA, SEQ ID NO: 95 (also SEQ ID NO: 41) (nucleic acid)
chain: TGCTGTTGACAGTGAGCGACCGGGAGAACAGGGTATGATATAGTGAAGCCACAGATGTATATCATACCCTGTTCTCCCGGCTGCCTACTGCCTCGGA
B18: Myc.1891: shRNA, SEQ ID NO: 147 (nucleic acid)
chain: TGCTGTTGACAGTGAGCGCACGACGAGAACAGTTGAAACATAGTGAAGCCACAGATGTATGTTTCAACTGTTCTCGTCGTTTGCCTACTGCCTCGGA
B19: Centa1.940: shRNA, SEQ ID NO: 106 (nucleic acid)
chain: TGCTGTTGACAGTGAGCGCCCGAAGGCTCATGTACTTCAATAGTGAAGCCACAGATGTATTGAAGTACATGAGCCTTCGGTTGCCTACTGCCTCGGA
B20: Myb.2652: shRNA, SEQ ID NO: 144 (also SEQ ID NO: 53) (nucleic acid)
chain: TGCTGTTGACAGTGAGCGCCCCAAGTAATACTTAATGCAATAGTGAAGCCACAGATGTATTGCATTAAGTATTACTTGGGATGCCTACTGCCTCGGA
B21: Bcl2.2169: shRNA, SEQ ID NO: 96 (also SEQ ID NO: 42) (nucleic acid)
chain: TGCTGTTGACAGTGAGCGACAGTAGAAATTATATGCATTATAGTGAAGCCACAGATGTATAATGCATATAATTTCTACTGCTGCCTACTGCCTCGGA
B22: Ptpn18.247: shRNA, SEQ ID NO: 170 (nucleic acid)
chain: TGCTGTTGACAGTGAGCGCCACGAACAAGAACCGCTACAATAGTGAAGCCACAGATGTATTGTAGCGGTTCTTGTTCGTGTTGCCTACTGCCTCGGA
B23: Cdc42ep3.1922: shRNA, SEQ ID NO: 104 (nucleic acid)
chain: TGCTGTTGACAGTGAGCGCAACAAGCAAGGTATTACTGTATAGTGAAGCCACAGATGTATACAGTAATACCTTGCTTGTTTTGCCTACTGCCTCGGA
B24: Myc.1888: shRNA, SEQ ID NO: 146 (nucleic acid)
chain: TGCTGTTGACAGTGAGCGAGAAACGACGAGAACAGTTGAATAGTGAAGCCACAGATGTATTCAACTGTTCTCGTCGTTTCCTGCCTACTGCCTCGGA
B25: Fas.1344: shRNA, SEQ ID NO: 118 (nucleic acid)
chain: TGCTGTTGACAGTGAGCGCGAGGAGAATTATAAACTGAAATAGTGAAGCCACAGATGTATTTCAGTTTATAATTCTCCTCATGCCTACTGCCTCGGA
B26: Rock2.3898: shRNA, SEQ ID NO: 174 (nucleic acid)
chain: TGCTGTTGACAGTGAGCGCCAGATTCTATATGCCAATGAATAGTGAAGCCACAGATGTATTCATTGGCATATAGAATCTGATGCCTACTGCCTCGGA
B27: Dnajc10.2057: shRNA, SEQ ID NO: 113 (nucleic acid)
chain: TGCTGTTGACAGTGAGCGCTCCAACGACAGTGGTATTCAATAGTGAAGCCACAGATGTATTGAATACCACTGTCGTTGGATTGCCTACTGCCTCGGA
B28: Pcna.566: shRNA, SEQ ID NO: 160 (nucleic acid)
chain: TGCTGTTGACAGTGAGCGATCGGGTGAATTTGCACGTATATAGTGAAGCCACAGATGTATATACGTGCAAATTCACCCGACTGCCTACTGCCTCGGA
B29: Rpa1.1620: shRNA, SEQ ID NO: 175 (also SEQ ID NO: 57) (nucleic acid)
chain: TGCTGTTGACAGTGAGCGCCCGCATGATCTTATCGGCAAATAGTGAAGCCACAGATGTATTTGCCGATAAGATCATGCGGTTGCCTACTGCCTCGGA
B30: Nrp1.479: shRNA, SEQ ID NO: 155 (nucleic acid)
chain: TGCTGTTGACAGTGAGCGCACCCTCATTCTTACCATCCAATAGTGAAGCCACAGATGTATTGGATGGTAAGAATGAGGGTATGCCTACTGCCTCGGA
B31: Myb.2572: shRNA, SEQ ID NO: 143 (also SEQ ID NO: 52) (nucleic acid)
chain: TGCTGTTGACAGTGAGCGCTCCATGTATCTCAGTCACTAATAGTGAAGCCACAGATGTATTAGTGACTGAGATACATGGAATGCCTACTGCCTCGGA

The molecules below were run on tet-on competent MLL/AF9+Nras AML (assay: Pooled negative selection RNAi screening (deep sequencing)). Settings: deep sequencing reads, On Dox compared to T0.
Type: cell-based, mouse
Procedure, shortened: (§1)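 A pool of 1230 tet-regulated shRNAs (TRMPV-type) was retrovirally transduced at mostly single copy and ~1000-fold representation into tet-on MLL/AF9+Nras AML cells or immortalized murine embryonic fibroblasts, then cultured on or off doxycycline. shRNA-expressing cells were FACS-sorted, and shRNA representation was quantified by PCR and deep sequencing of genomic DNA, with depletion on dox compared against t0 and off dox.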

Molecule	Fold depletion in AML
B1	8.03 Fold
B2	472.15 Fold
B3	12.28 Fold
B4	8.88 Fold
B5	9.19 Fold
B6	9.00 Fold
B7	8.63 Fold
B8	8.45 Fold
B9	104.03 Fold
B10	11.48 Fold
B11	51.94 Fold
B12	8.11 Fold
B13	8.69 Fold
B14	8.81 Fold
B15	8.73 Fold
B16	26.46 Fold

Molecule	Fold depletion in AML
B17	1,686.19 Fold
B18	9.05 Fold
B19	8.24 Fold
B20	15.46 Fold
B21	12.61 Fold
B22	8.13 Fold
B23	315.30 Fold
B24	8.48 Fold
B25	8.57 Fold
B26	8.10 Fold
B27	8.99 Fold
B28	9.89 Fold
B29	2,891.47 Fold
B30	8.19 Fold
B31	67.47 Fold

The molecules below were run on immortalized murine embryonic fibroblasts (Mef) in the same assay as above. Settings: deep sequencing reads, on dox compared to initial representation.
Type: cell-based
Procedure, shortened: as §1

Molecule	Fold depletion in Mef
B1	1.61 Fold
B2	1.18 Fold
B3	0.98 Fold
B4	1.76 Fold
B5	11.70 Fold
B6	0.85 Fold
B7	2.89 Fold
B8	1.18 Fold
B9	3.00 Fold
B10	3.02 Fold
B11	11.42 Fold
B12	0.54 Fold
B13	1.44 Fold
B14	10.63 Fold
B15	2.22 Fold
B16	1.28 Fold

Molecule	Fold depletion in Mef
B17	2.71 Fold
B18	4.62 Fold
B19	1.13 Fold
B20	1.14 Fold
B21	1.62 Fold
B22	0.21 Fold
B23	0.38 Fold
B24	3.83 Fold
B25	1.36 Fold
B26	1.04 Fold
B27	1.47 Fold
B28	6.15 Fold
B29	10.23 Fold
B30	0.83 Fold
B31	0.92 Fold
